Test results from patent US9138467.

Key:
[1] = biological target: M. gallisepticum affinity purified antigen; test: lectin affinity chromatography, protein in eluate as percent of load
[2] = biological target: M. gallisepticum affinity purified antigen; test: lectin affinity chromatography, protein in eluate (about 1.5 mg loaded)

Concanavalin A (immobilized Con A column) (from UniProt P02866 30-281)
% recovery in Con A elution [1]: 5.7%
Total protein (mg) eluted from Con A column [2]: 0.088 mg
